# Laboratory results published in patent US20260193317A1, “COMBINATION THERAPY WITH ACTRIIB RECEPTOR VARIANTS AND GLP-1 AGONISTS” (35PHARMA Inc., priority 2023, published 2026).
# Like-named read-outs stand apart in the source and are kept apart here.
# Tests used:
# DIO mice = test: Body composition in high fat diet mice, alone and in combination with incretin mimetics; assay type: in vivo; settings: for Fat mass (% change from baseline) / Lean mass (% change from baseline): as E44, NMR
# Protocol: Experiments were performed in vivo to investigate the potential for additive or synergistic effects between exemplary ActRIIB-ECD polypeptide constructs and incretin mimetics.
# [1] = target: GLP-1 receptor (GLP-1R) on CHO-K1 cells stably overexpressing GLP-1R (UniProt P43220); test: cell-based or functional assay
# Sequence of GLP-1 receptor (GLP-1R) on CHO-K1 cells stably overexpressing GLP-1R (P43220 24-463 limits assumed): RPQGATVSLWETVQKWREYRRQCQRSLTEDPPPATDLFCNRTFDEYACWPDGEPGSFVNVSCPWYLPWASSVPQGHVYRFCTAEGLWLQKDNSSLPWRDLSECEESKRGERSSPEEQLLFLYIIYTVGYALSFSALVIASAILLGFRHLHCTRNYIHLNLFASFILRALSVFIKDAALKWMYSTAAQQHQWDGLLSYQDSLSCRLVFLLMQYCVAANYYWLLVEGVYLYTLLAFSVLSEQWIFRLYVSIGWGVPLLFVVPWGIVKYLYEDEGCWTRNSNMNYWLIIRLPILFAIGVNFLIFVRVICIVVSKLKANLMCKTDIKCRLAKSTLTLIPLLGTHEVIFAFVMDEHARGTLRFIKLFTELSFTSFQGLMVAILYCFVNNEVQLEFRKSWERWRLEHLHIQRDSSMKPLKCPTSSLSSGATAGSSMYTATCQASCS
# [2] = target: T1, GIP receptor (GIPR) on CHO-K1 cells stably overexpressing GIPR (UniProt P48546); test: cell-based or functional assay
# T1 sequence (looked up): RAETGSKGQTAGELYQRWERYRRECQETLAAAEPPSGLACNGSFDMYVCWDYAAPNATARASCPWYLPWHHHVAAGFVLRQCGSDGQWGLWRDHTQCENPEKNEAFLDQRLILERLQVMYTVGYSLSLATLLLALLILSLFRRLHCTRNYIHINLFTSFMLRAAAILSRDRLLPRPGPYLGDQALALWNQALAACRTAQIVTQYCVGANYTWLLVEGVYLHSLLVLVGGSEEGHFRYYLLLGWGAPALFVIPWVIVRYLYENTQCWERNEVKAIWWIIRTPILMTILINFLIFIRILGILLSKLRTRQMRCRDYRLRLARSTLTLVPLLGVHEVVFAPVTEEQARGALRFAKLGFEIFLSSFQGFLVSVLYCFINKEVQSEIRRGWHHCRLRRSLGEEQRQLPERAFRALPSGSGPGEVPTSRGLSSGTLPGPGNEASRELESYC
# [3] = target: GLP-1 receptor (GLP-1R) on CHO-K1 cells stably overexpressing GLP-1R (UniProt P43220); test: cell-based or functional assay; remark: listed apart in the source
# [4] = target: T1, GIP receptor (GIPR) on CHO-K1 cells stably overexpressing GIPR; test: cell-based or functional assay; remark: listed apart in the source
substance,measurement,setting,value
tirzepatide [reference compound],Body weight (% change from baseline),"DIO mice; DIO mice, 21 days s.c., P1307 20 mg/kg weekly, P1229 40 mg/kg twice weekly, semaglutide 40 μg/kg daily, tirzepatide 45 μg/kg daily, alone or combined",−26.8%
same,"visceral, epididymal, pericardial, peri-renal, and retroperitoneal white adipose tissue weights","DIO mice; DIO mice, D21",significantly decreased all white adipose tissue weights
same,gastrocnemius and tibialis anterior weights,"DIO mice; DIO mice, D21, P1229 with or without caloric restriction",no significant effect on muscle weights
same,Fat mass (% change from baseline),DIO mice,−46.2%
same,Lean mass (% change from baseline),DIO mice,−14.5%
same,Fat mass (% change from baseline),DIO mice; listed as tirzepatide,−46.2%
same,Lean mass (% change from baseline),DIO mice; listed as tirzepatide,−14.5%
tirzepatide (peptide),CBA potency GLP-1R; P1372 + tirzepatide; D 0,[1],5.3 pM
same,CBA potency GLP-1R; P1372 + tirzepatide; D 7 2-8°C,[1],3.2 pM
same,CBA potency GLP-1R; P1372 + tirzepatide; D 7 RT,[1],3.3 pM
same,CBA potency GLP-1R; P1372 + tirzepatide; D 14 2-8°C,[1],2.9 pM
same,CBA potency GLP-1R; P1372 + tirzepatide; D 14 RT,[1],2.8 pM
same,CBA potency GLP-1R; P1372 + tirzepatide; D 28 2-8°C,[1],5.5 pM
same,CBA potency GLP-1R; P1372 + tirzepatide; D 28 RT,[1],5.4 pM
same,CBA potency GLP-1R; P1372 + tirzepatide; D 56 2-8°C,[1],9.3 pM
same,CBA potency GLP-1R; P1372 + tirzepatide; D 56 RT,[1],10 pM
same,CBA potency GLP-1R; Tirzepatide alone; D 0,[1],4.3 pM
same,CBA potency GLP-1R; Tirzepatide alone; D 7 2-8°C,[1],4.6 pM
same,CBA potency GLP-1R; Tirzepatide alone; D 7 RT,[1],3.7 pM
same,CBA potency GLP-1R; Tirzepatide alone; D 14 2-8°C,[1],2.4 pM
same,CBA potency GLP-1R; Tirzepatide alone; D 14 RT,[1],3.3 pM
same,CBA potency GLP-1R; Tirzepatide alone; D 28 2-8°C,[1],5.6 pM
same,CBA potency GLP-1R; Tirzepatide alone; D 28 RT,[1],5 pM
same,CBA potency GLP-1R; Tirzepatide alone; D 56 2-8°C,[1],8.3 pM
same,CBA potency GLP-1R; Tirzepatide alone; D 56 RT,[1],8.4 pM
same,CBA potency GIPR; P1372 + tirzepatide; D 0,[2],1.3 pM
same,CBA potency GIPR; P1372 + tirzepatide; D 7 2-8°C,[2],1 pM
same,CBA potency GIPR; P1372 + tirzepatide; D 7 RT,[2],0.99 pM
same,CBA potency GIPR; P1372 + tirzepatide; D 14 2-8°C,[2],0.98 pM
same,CBA potency GIPR; P1372 + tirzepatide; D 14 RT,[2],1 pM
same,CBA potency GIPR; P1372 + tirzepatide; D 28 2-8°C,[2],1.3 pM
same,CBA potency GIPR; P1372 + tirzepatide; D 28 RT,[2],1.5 pM
same,CBA potency GIPR; P1372 + tirzepatide; D 56 2-8°C,[2],1.9 pM
same,CBA potency GIPR; Tirzepatide alone; D 0,[2],1.5 pM
same,CBA potency GIPR; Tirzepatide alone; D 7 2-8°C,[2],1.1 pM
same,CBA potency GIPR; Tirzepatide alone; D 7 RT,[2],1.2 pM
same,CBA potency GIPR; Tirzepatide alone; D 14 2-8°C,[2],0.84 pM
same,CBA potency GIPR; Tirzepatide alone; D 14 RT,[2],0.82 pM
same,CBA potency GIPR; Tirzepatide alone; D 28 2-8°C,[2],1.6 pM
same,CBA potency GIPR; Tirzepatide alone; D 28 RT,[2],1.4 pM
same,CBA potency GIPR; Tirzepatide alone; D 56 2-8°C,[2],1.9 pM
same,CBA potency GIPR; Tirzepatide alone; D 56 RT,[2],2 pM
same,CBA potency GLP-1R; P1372 + tirzepatide; D 0,[3],9.3 pM
same,CBA potency GLP-1R; P1372 + tirzepatide; D 7 2-8°C,[3],13 pM
same,CBA potency GLP-1R; P1372 + tirzepatide; D 7 RT,[3],12 pM
same,CBA potency GLP-1R; P1372 + tirzepatide; D 14 RT,[3],13 pM
same,CBA potency GLP-1R; P1372 + tirzepatide; D 28 2-8°C,[3],14 pM
same,CBA potency GLP-1R; P1372 + tirzepatide; D 28 RT,[3],13 pM
same,CBA potency GLP-1R; P1372 + tirzepatide; D 56 2-8°C,[3],7.4 pM
same,CBA potency GLP-1R; P1372 + tirzepatide; D 56 RT,[3],7.7 pM
same,CBA potency GLP-1R; Tirzepatide alone; D 0,[3],11 pM
same,CBA potency GLP-1R; Tirzepatide alone; D 7 2-8°C,[3],11 pM
same,CBA potency GLP-1R; Tirzepatide alone; D 7 RT,[3],13 pM
same,CBA potency GLP-1R; Tirzepatide alone; D 14 2-8°C,[3],17 pM
same,CBA potency GLP-1R; Tirzepatide alone; D 14 RT,[3],23 pM
same,CBA potency GLP-1R; Tirzepatide alone; D 28 2-8°C,[3],14 pM
same,CBA potency GLP-1R; Tirzepatide alone; D 28 RT,[3],12 pM
same,CBA potency GLP-1R; Tirzepatide alone; D 56 2-8°C,[3],7 pM
same,CBA potency GLP-1R; Tirzepatide alone; D 56 RT,[3],6.7 pM
same,CBA potency GIPR; P1372 + tirzepatide; D 0,[4],1.5 pM
same,CBA potency GIPR; P1372 + tirzepatide; D 7 2-8°C,[4],1.7 pM
same,CBA potency GIPR; P1372 + tirzepatide; D 7 RT,[4],2.1 pM
same,CBA potency GIPR; P1372 + tirzepatide; D 14 2-8°C,[4],1.5 pM
same,CBA potency GIPR; P1372 + tirzepatide; D 14 RT,[4],1.8 pM
same,CBA potency GIPR; P1372 + tirzepatide; D 28 2-8°C,[4],2 pM
same,CBA potency GIPR; P1372 + tirzepatide; D 28 RT,[4],2.8 pM
same,CBA potency GIPR; P1372 + tirzepatide; D 56 2-8°C,[4],1.6 pM
same,CBA potency GIPR; P1372 + tirzepatide; D 56 RT,[4],1.7 pM
same,CBA potency GIPR; Tirzepatide alone; D 0,[4],1.6 pM
same,CBA potency GIPR; Tirzepatide alone; D 7 2-8°C,[4],2.8 pM
same,CBA potency GIPR; Tirzepatide alone; D 7 RT,[4],2.8 pM
same,CBA potency GIPR; Tirzepatide alone; D 14 2-8°C,[4],2.2 pM
same,CBA potency GIPR; Tirzepatide alone; D 14 RT,[4],1.7 pM
same,CBA potency GIPR; Tirzepatide alone; D 28 2-8°C,[4],2.2 pM
same,CBA potency GIPR; Tirzepatide alone; D 28 RT,[4],2.1 pM
same,CBA potency GIPR; Tirzepatide alone; D 56 2-8°C,[4],1.5 pM
same,CBA potency GIPR; Tirzepatide alone; D 56 RT,[4],1.5 pM
